According to US20230114801A1 (SYSTIMMUNE, published 2023):

B1: CD19 (receptor, UniProt P15391 20-291, looked up)
chain: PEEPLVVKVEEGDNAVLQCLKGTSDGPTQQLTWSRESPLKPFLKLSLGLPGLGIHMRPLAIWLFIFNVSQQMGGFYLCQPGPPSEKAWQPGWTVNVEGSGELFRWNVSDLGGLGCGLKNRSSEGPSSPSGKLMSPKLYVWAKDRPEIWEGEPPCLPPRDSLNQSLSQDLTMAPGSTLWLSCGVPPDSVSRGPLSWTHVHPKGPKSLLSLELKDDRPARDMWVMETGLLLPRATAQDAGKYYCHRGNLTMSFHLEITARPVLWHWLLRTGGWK

Columns and labels:
human CD3 [1] = biological target: T1, human CD3 (human, UniProt P07766 23-126; P04234 22-105); assay: BLI (Octet); conditions not stated
T1 construct: also called His-tagged human CD3; human CD3 (Acro CDD-H52W1)

NKG2D ligand = assay: BLI (Octet); conditions and ligand not stated
human CD3 [2] = biological target: T1, human CD3; assay: BLI (Octet), unstapled control mAb or Fc-scFv
SI-49P9 = biological target: T2, SI-49P9; assay: BLI (Octet); conditions not stated
T2 construct: penta-miniGNC; D1 αCD3, D2 αCD19, D3 NKG2D receptor dimer, D4 41BBL, D5 αPD-L1
T2 sequence (chain, as listed by the source): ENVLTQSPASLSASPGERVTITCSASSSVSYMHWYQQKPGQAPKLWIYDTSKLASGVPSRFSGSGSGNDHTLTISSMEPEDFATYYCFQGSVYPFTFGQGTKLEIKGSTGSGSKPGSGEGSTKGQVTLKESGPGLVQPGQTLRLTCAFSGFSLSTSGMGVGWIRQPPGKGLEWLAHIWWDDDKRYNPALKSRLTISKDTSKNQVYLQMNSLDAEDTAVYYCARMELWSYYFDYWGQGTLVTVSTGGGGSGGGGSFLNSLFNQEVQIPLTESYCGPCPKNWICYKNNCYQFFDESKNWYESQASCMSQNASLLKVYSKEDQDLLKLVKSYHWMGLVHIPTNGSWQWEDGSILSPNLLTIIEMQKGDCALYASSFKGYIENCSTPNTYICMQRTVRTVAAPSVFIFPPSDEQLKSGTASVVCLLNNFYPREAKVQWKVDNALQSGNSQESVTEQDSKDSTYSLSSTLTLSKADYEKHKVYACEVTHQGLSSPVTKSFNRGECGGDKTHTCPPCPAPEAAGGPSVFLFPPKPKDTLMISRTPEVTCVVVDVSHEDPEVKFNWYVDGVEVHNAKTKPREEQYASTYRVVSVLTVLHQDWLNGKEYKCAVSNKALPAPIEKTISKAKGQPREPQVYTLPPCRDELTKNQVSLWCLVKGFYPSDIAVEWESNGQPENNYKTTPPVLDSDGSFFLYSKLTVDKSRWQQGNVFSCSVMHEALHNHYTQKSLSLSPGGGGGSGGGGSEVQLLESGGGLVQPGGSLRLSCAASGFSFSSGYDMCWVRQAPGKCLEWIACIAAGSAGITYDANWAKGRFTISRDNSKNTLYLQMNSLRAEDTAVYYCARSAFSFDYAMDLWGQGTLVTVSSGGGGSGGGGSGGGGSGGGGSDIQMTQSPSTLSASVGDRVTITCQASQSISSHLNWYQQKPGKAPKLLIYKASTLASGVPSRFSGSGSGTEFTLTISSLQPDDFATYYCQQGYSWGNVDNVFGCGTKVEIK

human CD3 [3] = biological target: T1, human CD3; assay: antigen binding kinetics; method not given
CD19 = biological target: B1; assay: antigen binding kinetics; method not given
human 4-1BB = biological target: T3, human 4-1BB (human, UniProt Q07011 24-186, limits assumed); assay: antigen binding kinetics; method not given
T3 construct: Soluble antigen in Octet; construct not described

human PD-L1 = biological target: T4, human PD-L1 (human, UniProt Q9NZQ7 19-238); assay: antigen binding kinetics; method not given
T4 construct: Soluble antigen in Octet; bought; also called human PD-L1 (Acro PD1-H5229)

Binder	Kd (human CD3 [3]) [nM]	Kd (CD19) [nM]	Kd (human 4-1BB) [nM]	Kd (human PD-L1) [nM]	also measured
SI-49R27 (bispecific antibody, human IgG1, kappa, L234A L235A, N297A, bi-miniGNC; D1 αCD3, D3 NKG2D receptor dimer) chain 1: EIVMTQSPSTLSASVGDRVIITCQASESISSWLAWYQQKPGKAPKLLIYEASKLASGVPSRFSGSGSGAEFTLTISSLQPDDFATYYCQGYFYFISRTYVNSFGCGTKLTVLGSTGSGSKPGSGEGSTKGEVQLVESGGGLVQPGGSLRLSCTASGFTISTNAMSWVRQAPGKCLEWVGVITGRDITYYASWAKGRFTISRDTSKNTVYLQMNSLRAEDTAVYYCARDGGSSAITSNNIWGQGTLVTVSTGGGGSGGGGSFLNSLFNQEVQIPLTESYCGPCPKNWICYKNNCYQFFDESKNWYESQASCMSQNASLLKVYSKEDQDLLKLVKSYHWMGLVHIPTNGSWQWEDGSILSPNLLTIIEMQKGDCALYASSFKGYIENCSTPNTYICMQRTVASTKGPSVFPLAPSSKSTSGGTAALGCLVKDYFPEPVTVSWNSGALTSGVHTFPAVLQSSGLYSLSSVVTVPSSSLGTQTYICNVNHKPSNTKVDKRVEPKSCDKTHTCPPCPAPEAAGGPSVFLFPPKPKDTLMISRTPEVTCVVVDVSHEDPEVKFNWYVDGVEVHNAKTKPREEQYASTYRVVSVLTVLHQDWLNGKEYKCAVSNKALPAPIEKTISKAKGQPREPQVCTLPPSRDELTKNQVSLSCAVKGFYPSDIAVEWESNGQPENNYKTTPPVLDSDGSFFLVSKLTVDKSRWQQGNVFSCSVMHEALHNHYTQKSLSLSPG chain 2: not shown					Kd (human CD3 [1]): 32.2 nM; Kd (NKG2D ligand): 16 nM
SI-9C21 (antibody, human IgG1, kappa, V domains shown, monoclonal antibody control for the αCD3 domain; also called αCD3 mAb; D3 = αCD3 control) VH: EVQLVESGGGLVQPGGSLRLSCTASGFTISTNAMSWVRQAPGKGLEWVGVITGRDITYYASWAKGRFTISRDTSKNTVYLQMNSLRAEDTAVYYCARDGGSSAITSNNIWGQGTLVTVSS VL: EIVMTQSPSTLSASVGDRVIITCQASESISSWLAWYQQKPGKAPKLLIYEASKLASGVPSRFSGSGSGAEFTLTISSLQPDDFATYYCQGYFYFISRTYVNSFGQGTKLTVLR					Kd (human CD3 [2]): 26.3 nM
B1					Kd (SI-49P9): 6.4 nM
SI-38P11 (other, penta-miniGNC; D1 αCD20 scFv, D2 αCD19, D3 αCD3 Fab without additional disulphide, D4 α4-1BB, D5 αPD-L1 scFv) chain 1: QIVLSQSPAILSASPGEKVTMTCRASSSVSYIHWFQQKPGSSPKPWIYATSNLASGVPVRFSGSGSGTSYSLTISRVEAEDAATYYCQQWTSNPPTFGGGTKLTVLGGGGSGGGGSGGGGSGGGGSQVQLQQPGAELVKPGASVKMSCKASGYTFTSYNMHWVKQTPGRGLEWIGAIYPGNGDTSYNQKFKGKATLTADKSSSTAYMQLSSLTSEDSAVYYCARSTYYGGDWYFNVWGAGTTVTVSSGGGGSGGGGSEVQLVESGGGLVQPGGSLRLSCAASGFTISTNAMSWVRQAPGKGLEWIGVITGRDITYYASWAKGRFTISRDNSKNTLYLQMNSLRAEDTAVYYCARDGGSSAITSNNIWGQGTLVTVSSASTKGPSVFPLAPSSKSTSGGTAALGCLVKDYFPEPVTVSWNSGALTSGVHTFPAVLQSSGLYSLSSVVTVPSSSLGTQTYICNVNHKPSNTKVDKRVEPKSCDKTHTCPPCPAPEAAGGPSVFLFPPKPKDTLMISRTPEVTCVVVDVSHEDPEVKFNWYVDGVEVHNAKTKPREEQYNSTYRVVSVLTVLHQDWLNGKEYKCAVSNKALPAPIEKTISKAKGQPREPQVYTLPPSRDELTKNQVSLSCAVKGFYPSDIAVEWESNGQPENNYKTTPPVLDSDGSFFLVSKLTVDKSRWQQGNVFSCSVMHEALHNHYTQKSLSLSPGGGGGSGGGGSDVVMTQSPSSVSASVGDRVTITCQASQNIRTYLSWYQQKPGKAPKLLIYAAANLASGVPSRFSGSGSGTDFTLTISDLEPGDAATYYCQSTYLGTDYVGGAFGGGTKLTVLGGGGSGGGGSGGGGSGGGGSEVQLVESGGGLVQPGGSLRLSCTASGFTISSYHMQWVRQAPGKGLEYIGTISSGGNVYYASSARGRFTISRPSSKNTVDLQMNSLRAEDTAVYYCARDSGYSDPMWGQGTLVTVSS chain 2: ENVLTQSPASLSASPGERVTITCSASSSVSYMHWYQQKPGQAPKLWIYDTSKLASGVPSRFSGSGSGNDHTLTISSMEPEDFATYYCFQGSVYPFTFGQGTKVTVLGGGGSGGGGSGGGGSGGGGSQVTLKESGPGLVQPGQTLSLTCAFSGFSLSTSGMGVGWIRQPPGKGLEWLAHIWWDDDKRYNPALKSRLTISKDTSKNQVYLQMNSLDAEDTAVYYCARMELWSYYFDYWGQGTLVTVSSGGGGSGGGGSDVVMTQSPSTLSASVGDRVTINCQASESISSWLAWYQQKPGKAPKLLIYEASKLASGVPSRFSGSGSGTEFTLTISSLQPDDFATYYCQGYFYFISRTYVNSFGGGTKVEIKRTVAAPSVFIFPPSDEQLKSGTASVVCLLNNFYPREAKVQWKVDNALQSGNSQESVTEQDSKDSTYSLSSTLTLSKADYEKHKVYACEVTHQGLSSPVTKSFNRGECGGDKTHTCPPCPAPEAAGGPSVFLFPPKPKDTLMISRTPEVTCVVVDVSHEDPEVKFNWYVDGVEVHNAKTKPREEQYNSTYRVVSVLTVLHQDWLNGKEYKCAVSNKALPAPIEKTISKAKGQPREPQVYTLPPSRDELTKNQVSLWCLVKGFYPSDIAVEWESNGQPENNYKTTPPVLDSDGSFFLYSKLTVDKSRWQQGNVFSCSVMHEALHNRFTQKSLSLSPGGGGGSGGGGSDIQMTQSPSTLSASVGDRVTITCQASQSISSHLNWYQQKPGKAPKLLIYKASTLASGVPSRFSGSGSGTEFTLTISSLQPDDFATYYCQQGYSWGNVDNVFGGGTKVTVLGGGGSGGGGSGGGGSGGGGSEVQLLESGGGLVQPGGSLSLSCAASGFSFSSGYDMCWVRQAPGKGLEWIACIAAGSAGITYDANWAKGRFTISRDNSKNTLYLQMNSLRAEDTAVYYCARSAFSFDYAMDLWGQGTLVTVSS	5.23	1.89	14.8	1.1	
SI-76PM1 (other, penta-miniGNC; as SI-38P11 but with an additional disulphide ('staple') in the D3 αCD3 Fab VH/VL) chain 1: QIVLSQSPAILSASPGEKVTMTCRASSSVSYIHWFQQKPGSSPKPWIYATSNLASGVPVRFSGSGSGTSYSLTISRVEAEDAATYYCQQWTSNPPTFGGGTKLTVLGGGGSGGGGSGGGGSGGGGSQVQLQQPGAELVKPGASVKMSCKASGYTFTSYNMHWVKQTPGRGLEWIGAIYPGNGDTSYNQKFKGKATLTADKSSSTAYMQLSSLTSEDSAVYYCARSTYYGGDWYFNVWGAGTTVTVSSGGGGSGGGGSEVQLVESGGGLVQPGGSLRLSCAASGFTISTNAMSWVRQAPGKCLEWIGVITGRDITYYASWAKGRFTISRDNSKNTLYLQMNSLRAEDTAVYYCARDGGSSAITSNNIWGQGTLVTVSSASTKGPSVFPLAPSSKSTSGGTAALGCLVKDYFPEPVTVSWNSGALTSGVHTFPAVLQSSGLYSLSSVVTVPSSSLGTQTYICNVNHKPSNTKVDKRVEPKSCDKTHTCPPCPAPEAAGGPSVFLFPPKPKDTLMISRTPEVTCVVVDVSHEDPEVKFNWYVDGVEVHNAKTKPREEQYNSTYRVVSVLTVLHQDWLNGKEYKCAVSNKALPAPIEKTISKAKGQPREPQVYTLPPSRDELTKNQVSLSCAVKGFYPSDIAVEWESNGQPENNYKTTPPVLDSDGSFFLVSKLTVDKSRWQQGNVFSCSVMHEALHNHYTQKSLSLSPGGGGGSGGGGSDVVMTQSPSSVSASVGDRVTITCQASQNIRTYLSWYQQKPGKAPKLLIYAAANLASGVPSRFSGSGSGTDFTLTISDLEPGDAATYYCQSTYLGTDYVGGAFGGGTKLTVLGGGGSGGGGSGGGGSGGGGSEVQLVESGGGLVQPGGSLRLSCTASGFTISSYHMQWVRQAPGKGLEYIGTISSGGNVYYASSARGRFTISRPSSKNTVDLQMNSLRAEDTAVYYCARDSGYSDPMWGQGTLVTVSS chain 2: ENVLTQSPASLSASPGERVTITCSASSSVSYMHWYQQKPGQAPKLWIYDTSKLASGVPSRFSGSGSGNDHTLTISSMEPEDFATYYCFQGSVYPFTFGQGTKVTVLGGGGSGGGGSGGGGSGGGGSQVTLKESGPGLVQPGQTLSLTCAFSGFSLSTSGMGVGWIRQPPGKGLEWLAHIWWDDDKRYNPALKSRLTISKDTSKNQVYLQMNSLDAEDTAVYYCARMELWSYYFDYWGQGTLVTVSSGGGGSGGGGSDVVMTQSPSTLSASVGDRVTINCQASESISSWLAWYQQKPGKAPKLLIYEASKLASGVPSRFSGSGSGTEFTLTISSLQPDDFATYYCQGYFYFISRTYVNSFGCGTKVEIKRTVAAPSVFIFPPSDEQLKSGTASVVCLLNNFYPREAKVQWKVDNALQSGNSQESVTEQDSKDSTYSLSSTLTLSKADYEKHKVYACEVTHQGLSSPVTKSFNRGECGGDKTHTCPPCPAPEAAGGPSVFLFPPKPKDTLMISRTPEVTCVVVDVSHEDPEVKFNWYVDGVEVHNAKTKPREEQYNSTYRVVSVLTVLHQDWLNGKEYKCAVSNKALPAPIEKTISKAKGQPREPQVYTLPPSRDELTKNQVSLWCLVKGFYPSDIAVEWESNGQPENNYKTTPPVLDSDGSFFLYSKLTVDKSRWQQGNVFSCSVMHEALHNRFTQKSLSLSPGGGGGSGGGGSDIQMTQSPSTLSASVGDRVTITCQASQSISSHLNWYQQKPGKAPKLLIYKASTLASGVPSRFSGSGSGTEFTLTISSLQPDDFATYYCQQGYSWGNVDNVFGGGTKVTVLGGGGSGGGGSGGGGSGGGGSEVQLLESGGGLVQPGGSLSLSCAASGFSFSSGYDMCWVRQAPGKGLEWIACIAAGSAGITYDANWAKGRFTISRDNSKNTLYLQMNSLRAEDTAVYYCARSAFSFDYAMDLWGQGTLVTVSS	3.22	3.3	22.4	1.47	
